Assays:
[1] = target: T1, CD22 ECD-Fc fusion protein (UniProt P20273 20-687, limits assumed); assay: SPR, BIAcore X100, CD22 ECD-Fc immobilized, scFv in flow
T1 construct: extracellular domain; also called CD22-Fc; not shown: Fc part
Method: (§1) FIGS. 13A-13F: (FIG. 13A) BIAcore analysis was used to evaluate association and dissociation curves of various scFvs. […] (FIGS. 13C-13F) Mice were injected with CD22^lo or Nalm6 leukemia on Day 0. […] Bone marrow cells were stained for flow cytometry and analyzed on Fortessa flow machine. Statistics were calculated using unpaired t-test (** p<0.0021).
(§2) Purified CD22 ECD-Fc fusion protein was diluted in 10 mM acetic acid buffer, pH 5.0, immobilized on a CMS biosensor chip for 1400 RU using an amine coupling kit. The running buffer was HBS-EP (10 mM HEPES, pH 7.4, 150 mM NaCl, 3 mM EDTA, 0.05% surfactant P20). The scFvs diluted in running buffer were allowed to flow through the cells at concentrations 0.32, 1.6, 8, 40 and 200 nM. After a 10-minute of dissociation, the chip was regenerated with 10 mM acetic acid, pH 4.0, 0.5 M NaCl. The data were fitted with 1:1 binding model and the dissociation rate constant was estimated with the BIAevaluation software.

[2] = target: T1, CD22 ECD-Fc fusion protein; assay: SPR, BIAcore X100; CD22 ECD-Fc amine-coupled to the chip, scFv as analyte (0.32-200 nM per paragraph 213), 1:1 fit
Method: as §1, §2

[3] = target: T1, CD22 ECD-Fc fusion protein; assay: SPR, BIAcore X100, CD22 ECD-Fc immobilized, scFv in flow. The association rate appears only as the divisor in the KD calculation, and its unit is not printed.
Method: as §1, §2

[4] = target: T1, CD22 ECD-Fc fusion protein; assay: SPR, BIAcore X100, CD22 ECD-Fc immobilized, scFv in flow, 1:1 model. The fitted value is below the instrument's limit.; fitted kd, below the instrument's limit
Method: as §1, §2

[5] = target: T1, CD22 ECD-Fc fusion protein; assay: SPR, BIAcore X100; CD22 ECD-Fc amine-coupled to the chip, scFv as analyte (0.32-200 nM per paragraph 213), 1:1 fit; calculated from a kd that legend paragraph 27 says is below the instrument's limit
Method: as §1, §2

[6] = target: T1, CD22 ECD-Fc fusion protein; assay: SPR, BIAcore X100; CD22 ECD-Fc amine-coupled to the chip, scFv as analyte (0.32-200 nM per paragraph 213), 1:1 fit; legend paragraph 27 says this kd is below what the instrument can measure (1.0E-5 1/s)
Method: as §1, §2

CD22 = target: T2, CD22 (UniProt P20273 20-687, limits assumed); assay: not stated (overview statement); overview statement, assay not stated
T2 construct: also called B cell antigen CD22

| Binder | Kd [1] | fold higher affinity than original scFv m971 [1] | kon [2] | kon [3] | koff [4] | Kd [5] | koff [6] | Kd (CD22) |
| --- | --- | --- | --- | --- | --- | --- | --- | --- |
| m971-L7 scFv (scFv, Soluble scFv run over immobilized CD22 ECD-Fc on a BIAcore X100; also called matured variant L7) scFv: QVQLQQSGPGMVKPSQTLSLTCAISGDSVSSNSVAWNWIRQSPSRGLEWLGRTYYRSTWYNDYAVSMKSRITINPDTNKNQFSLQLNSVTPEDTAVYYCAREVTGDLEDAFDIWGQGTMVTVSSGGGGSGGGGSGGGGSDIQMIQSPSSLSASVGDRVTITCRASQTIWSYLNWYRQRPGEAPNLLIYAASSLQSGVPSRFSGRGSGTDFTLTISSLQAEDFATYYCQQSYSIPQTFGQGTKLEIK | < 0.018 nM | > 1000 fold | 563000 M⁻¹ s⁻¹ | 560000 M⁻¹ s⁻¹ | < 1e-05 s⁻¹ | 0.00206 nM | 1.16e-06 s⁻¹ |  |
| affinity matured human monoclonal antibody m971-L7 (antibody, V domains shown, Named as 'antibody' in the overview) VH: QVQLQQSGPGMVKPSQTLSLTCAISGDSVSSNSVAWNWIRQSPSRGLEWLGRTYYRSTWYNDYAVSMKSRITINPDTNKNQFSLQLNSVTPEDTAVYYCAREVTGDLEDAFDIWGQGTMVTVSS VL: DIQMIQSPSSLSASVGDRVTITCRASQTIWSYLNWYRQRPGEAPNLLIYAASSLQSGVPSRFSGRGSGTDFTLTISSLQAEDFATYYCQQSYSIPQTFGQGTKLEIK |  |  |  |  |  |  |  | < 0.05 nM |

Source: patent US20210324074A1 (US Dept. of Health and Human Services, published 2021)
